Measurements published in publication PMC10937716.

Experiments:
Test in all cases: cryo-EM structure; purified BAV virions (full and partial particles) in 1x PBS pH 7.4; icosahedral reconstruction and local reconstructions of the fivefold vertex, of RdRp and of VP9
[1] = target: Banna virus (BAV) strain YN15-126-01 VP9, receptor binding protein (spike) (Banna virus strain YN15-126-01)
[2] = target: Banna virus (BAV) strain YN15-126-01 VP4, membrane penetration protein (spike) (Banna virus strain YN15-126-01)
[3] = target: Banna virus (BAV) strain YN15-126-01 VP8, outer capsid protein (Banna virus strain YN15-126-01)

Banna virus (BAV) strain YN15-126-01 VP9, receptor binding protein (spike) (natural protein)
stoichiometry N [1]: 3

Banna virus (BAV) strain YN15-126-01 VP4, membrane penetration protein (spike) (natural protein)
stoichiometry N [2]: 3

Banna virus (BAV) strain YN15-126-01 VP8, outer capsid protein (natural protein)
stoichiometry N [3]: 3
